Laboratory results published in publication PMC2175199 (The Journal of Cell Biology, 2000).
One block for each binder: values may come before it.

Target: T1, XSA2 (Xenopus laevis (endogenous in egg …, UniProt Q9DGN0 1-1194))
T1 sequence: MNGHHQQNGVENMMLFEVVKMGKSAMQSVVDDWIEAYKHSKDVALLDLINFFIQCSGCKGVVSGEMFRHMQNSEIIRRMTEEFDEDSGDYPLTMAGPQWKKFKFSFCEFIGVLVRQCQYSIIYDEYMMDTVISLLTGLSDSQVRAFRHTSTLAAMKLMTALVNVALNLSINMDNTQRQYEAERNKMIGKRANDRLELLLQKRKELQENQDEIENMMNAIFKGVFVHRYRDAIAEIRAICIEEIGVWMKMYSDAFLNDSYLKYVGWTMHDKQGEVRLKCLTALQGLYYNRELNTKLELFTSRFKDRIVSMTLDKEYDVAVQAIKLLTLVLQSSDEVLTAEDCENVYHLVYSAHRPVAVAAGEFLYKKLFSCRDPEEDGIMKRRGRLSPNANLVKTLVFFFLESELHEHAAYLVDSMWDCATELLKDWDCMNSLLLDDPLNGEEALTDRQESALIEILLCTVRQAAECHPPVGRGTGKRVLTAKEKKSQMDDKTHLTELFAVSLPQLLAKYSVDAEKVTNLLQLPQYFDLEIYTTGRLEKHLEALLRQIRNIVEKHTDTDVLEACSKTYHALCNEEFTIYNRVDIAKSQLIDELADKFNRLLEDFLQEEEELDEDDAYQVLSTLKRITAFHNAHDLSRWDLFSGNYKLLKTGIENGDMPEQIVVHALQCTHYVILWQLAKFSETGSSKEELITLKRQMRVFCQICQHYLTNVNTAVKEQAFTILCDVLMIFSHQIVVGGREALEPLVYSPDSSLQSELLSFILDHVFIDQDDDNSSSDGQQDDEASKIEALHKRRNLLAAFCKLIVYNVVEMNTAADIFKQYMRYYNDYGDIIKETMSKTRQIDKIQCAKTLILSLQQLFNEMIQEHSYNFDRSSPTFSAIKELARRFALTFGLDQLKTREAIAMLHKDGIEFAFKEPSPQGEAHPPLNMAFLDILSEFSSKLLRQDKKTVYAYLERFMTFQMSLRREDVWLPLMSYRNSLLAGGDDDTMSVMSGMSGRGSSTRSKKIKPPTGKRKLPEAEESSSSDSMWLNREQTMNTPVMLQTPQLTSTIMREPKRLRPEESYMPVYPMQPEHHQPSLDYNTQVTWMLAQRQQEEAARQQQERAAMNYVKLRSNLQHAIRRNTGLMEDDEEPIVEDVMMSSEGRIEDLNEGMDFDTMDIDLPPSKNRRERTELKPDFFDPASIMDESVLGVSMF
Experiment: co-IP

percent depleted from the extract by anti-XSA2: ~5%
B1: XSMC3 (natural protein)
chain: MYIKQVIIQGFRSYRDQTIVDPFSSKHNVIVGRNGSGKSNFFYAIQFVLSDEFSHLRPEQRLALLHEGTGPRVISAFVEIIFDNSDNRLPIDKEEVSLRRVIGAKKDQYFLDKKMVTKNDVMNLLESAGFSRSNPYYIVKQGKINQMATAPDSQRLKLLREVAGTRVYDERKEESISLMKETEGKRDKINELLKYIEERLHTLEEEKEELAQYQKWDKMRRALEYTIYNQELNETRAKLDELSSKRETSGEKSRQLRDAQQDARDKMEEIERQVRELKSKISAMKEEKEQLSSERQEQIKQRTKLELKTKDLQDELAGNSEQRKRLLKERQKLLEKIEEKQKELAETEPKFSSVKQKEESGIARLAQATQERTDLYAKQGRGSQFTSKEERDKWIKKELKSLDQAINDKKRQIAAINKDLEETEVNKEKNLEQYTKLDQDLNEVKTRVEELDKKYYEVKNKKDELQSERNYLWREENAEQQSLAAKREDLEKKQQLLRAATGKAILNGIDSINKVLEHFRRKGINQHVINGYHGIVMNNFDCEPAFYTCVEVTAGNRLFYHIVESDEVSTKILMEFNKMNLPGEVTFLPLNKLDVRDTAYPETNDAIPMISKLRYNLRFDKAFKHVFGKTLICRSMEVSTQLARAFTMDCITLEGDQVSHRGALTGGYYDTRKSRLELQKDVRKVEDELHALEAKLNENLRRNIERINNEIDQLMNQMQQIETQQRKFKASRDSILSEMKMLKEKRQQSEKTFMPKQRSLQSLEASLHAMESTRESLKAELGTDLLSQLSLEDQKRVDALNDEIRQLQQENRQLLNERIKLEGTITRVETYLNENLRKRLDQVEQELNELRETEGGTVLTATTSELEAINKRVKDTLARSEGLDITIDKTEVESKDLVKSMDRWKNMEKDHMDAINHDTKELEKMTNRQGMLLKKKEECMKKIRELGSLPQEAFEKYQTLSLKQLFRKLEQCNTELKKYSHVNKKALDQFVNFSEQKEKLIKRQEELDRGHKSIMELMNVLELRKYEAIQLTFKQVSKNFSEVFQKLVPGGKATLVMKKGDVEGSQSQDEGEGSTQSSVPSVDQFTGVGIRVSFTGKQAEMREMQQLSGGQKSLVALALIFAIQKCDPAPFYLFDEIDQALDAQHRKAVSDMIMELASHAQFITTTFRPELLESADKFYGVKFRNKVSHIDVITAEQAKDFVEDDTTHG

percent depleted from the extract by anti-XSA2: ~5%
B2: XSMC1 (natural protein)
chain: MGFLKLIEIENFKSYKGRQIIGPFHRFTAIIGPNGSGKSNLMDAISFVLGEKTSNLRVKTLRDLIHGAPVGKPAANRAFVSMVYSEDSGEEKVFSRVIVGGSSEYKINNKVVQLSEYSDSLEKLGILIKARNFLVFQGAVESIAMKNPKERTALFEEISRSGELAQEYDKRKKEMVKAEEDTQFNYHRKKNIAAERKEAKQEKEEAERYQRLKDEVARAQIQLQLFKLYHNESEIEKLNKELSVKNKGIEKDKKHMDKVEEELKDKKKELGKMMREQQAIEKEIKEKDAELNQKLPQYIKAKENPSHKIKKFRAAKKSLQNAQKQYKKRKADMDELEKEMLSVEKARQEFEERMEEESQSQGRDLTLEENQVKKYHRLKEEASKRAATLAQELEKFNRDQKADQDRLDLEERKKVETEAKIKQKLRELEENQKRIEKLEEYIATSKQSLEEQKNLEETLTEEVEMAKRRIDEINSELNQVMEQLGDARIDRQESSRQQRKAEIMESIKRLYPGSVYGRLIDLCQPTQKKYQIAVTKVLGKNMDAIIVDSEKTGRDCIQYIKEQRGEPETFLPLDYLEVKPTDERLRELKGAKLVIDVIRYEPPHIKKALQYACGNALVCDNVEDARRIAFGGHQRHKTVALDGTLFQKSGVISGGASDLKAKARRWDEKAVDKLKEKKERLTEELKEQMKAKRKEAELRQVQSQAHGLQMRLKYSQSDLEQTKTRHLAMNMQEKSKLESELANFSPRINDIKRIIQSRDREMKDLKEKMNQVEDEVFEEFCREIGVRNIREFEEEKVKRQNEIAKKRLEFENQKTRLGIQLDYEKNQLKEDQGKVQTWEQSVKKDDNEIEKLKKEEQRHMKIIDETMAQLQDLKNQHLAKKSEVNDKNHLMEDIRKKLGSANKEVTHLQKEVTAIETKLEQKRSDRHNLLQACKMSDIKLPLSKGTMDDISQEEGSSQGEESASSSQRSSTVYAKEALIEIDYSDLSEDLKDAVADDDIKQEMSALHQKINEQQSILQRISAPNMKAMEKLESVRDKFQETSDEFEAARKRAKKAKQAFEQTKKERFDRFNACFESVATNIDEIYKALSRNSSAQAFLGPENPEEPYLDGINYNCVAPGKRFRPMDNLSGGEKTVAALALLFAIHSYKPSPFFVLDEIDAALDNTNIGKVANYIKEQSMSNFQAIVISLKEEFYTKAESLIGVYPEQGDCVISKVLTFDLTKYPDANPNPND
